Where two headings read alike, the source gives them in different places.
T1: rat CEACAM1 D(1–4)-Fc fusion protein (rat, UniProt P16573 35-425)
T1 sequence (looked up): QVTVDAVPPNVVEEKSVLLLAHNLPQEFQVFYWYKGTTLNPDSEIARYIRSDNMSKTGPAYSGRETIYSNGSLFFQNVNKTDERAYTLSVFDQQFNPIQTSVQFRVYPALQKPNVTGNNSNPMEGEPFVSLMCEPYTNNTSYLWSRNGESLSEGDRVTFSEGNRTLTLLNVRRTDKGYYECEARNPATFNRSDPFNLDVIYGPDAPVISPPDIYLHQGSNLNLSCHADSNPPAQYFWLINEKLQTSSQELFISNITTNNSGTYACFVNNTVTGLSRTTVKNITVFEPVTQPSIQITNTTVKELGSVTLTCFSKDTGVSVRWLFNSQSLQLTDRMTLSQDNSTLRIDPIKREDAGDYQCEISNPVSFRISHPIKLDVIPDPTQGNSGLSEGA


Legend:
[1] = molecular target: rat CEACAM1 D(2–4)-His ectodomain (rat); experiment: cross-linking
[2] = molecular target: the molecule itself; experiment: molecular electron tomography
[3] = molecular target: the molecule itself; experiment: molecular electron tomography; remark: listed apart in the source
[4] = molecular target: T1, rat CEACAM1 D(1–4)-Fc fusion protein; experiment: SPR

Row | fold lower percentage of cross-linked dimers than D(1–4) [1] [fold lower] | Kd [4] [µM] | koff [4] [s⁻¹] | kon [4] [M⁻¹ s⁻¹] | Molecule | KD monomer/A-dimer [2] [µM] | KD monomer/C-dimer [2] [µM] | KD monomer/A-dimer [3] [µM] | KD monomer/C-dimer [3] [µM]
1 | 4 | – | – | – | rat CEACAM1 D(2–4)-His ectodomain (domain or fragment) | – | – | – | –
2 | – | 11.2 | 0.508 ± 0.0078 | 45300 ± 3600 | rat CEACAM1 D(1–4)-His ectodomain (domain or fragment, UniProt P16573 35-425, looked up, glycosylated (polydisperse, varying degrees of glycosylation; average molecular mass 81 kD)) QVTVDAVPPNVVEEKSVLLLAHNLPQEFQVFYWYKGTTLNPDSEIARYIRSDNMSKTGPAYSGRETIYSNGSLFFQNVNKTDERAYTLSVFDQQFNPIQTSVQFRVYPALQKPNVTGNNSNPMEGEPFVSLMCEPYTNNTSYLWSRNGESLSEGDRVTFSEGNRTLTLLNVRRTDKGYYECEARNPATFNRSDPFNLDVIYGPDAPVISPPDIYLHQGSNLNLSCHADSNPPAQYFWLINEKLQTSSQELFISNITTNNSGTYACFVNNTVTGLSRTTVKNITVFEPVTQPSIQITNTTVKELGSVTLTCFSKDTGVSVRWLFNSQSLQLTDRMTLSQDNSTLRIDPIKREDAGDYQCEISNPVSFRISHPIKLDVIPDPTQGNSGLSEGA | 260 | 72.1 | 113 | 43.8
